Source: patent US20180155451A1 (published 2018)

T1: FcγRIIa R (human, UniProt P12318 34-217)
T1 construct: extracellular domain; also called FcgRIIa R; FcγRIIa type R
T1 sequence (looked up): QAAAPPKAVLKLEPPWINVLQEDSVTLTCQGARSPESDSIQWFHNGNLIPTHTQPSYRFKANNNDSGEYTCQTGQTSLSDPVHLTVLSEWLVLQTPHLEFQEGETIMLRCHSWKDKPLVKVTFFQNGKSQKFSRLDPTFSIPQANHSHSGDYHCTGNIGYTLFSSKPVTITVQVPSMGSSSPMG

T2: FcγRIIb (human, UniProt P31994 43-217)
T2 construct: extracellular domain; also called FcgRIIb
T2 sequence (looked up): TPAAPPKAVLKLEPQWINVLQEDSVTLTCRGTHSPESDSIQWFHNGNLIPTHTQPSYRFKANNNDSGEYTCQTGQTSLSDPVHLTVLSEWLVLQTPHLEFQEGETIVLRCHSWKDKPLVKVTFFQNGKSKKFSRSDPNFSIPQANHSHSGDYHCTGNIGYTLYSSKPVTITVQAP

T3: FcγRIIa R (human, UniProt P12318 34-217)
T3 construct: extracellular domain; Soluble extracellular domain with C-terminal His tag, expressed in FreeStyle293 cells; also called FcgRIIa R; FcγRIIa type R; not shown: His tag attached to the C terminus
T3 sequence (looked up): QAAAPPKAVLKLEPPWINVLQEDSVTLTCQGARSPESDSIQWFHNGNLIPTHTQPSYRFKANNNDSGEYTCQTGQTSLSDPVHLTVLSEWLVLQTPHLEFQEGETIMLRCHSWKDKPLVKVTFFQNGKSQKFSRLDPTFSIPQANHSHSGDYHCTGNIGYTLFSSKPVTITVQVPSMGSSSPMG


Assays:
FcγRIIa R [1] = biological target: T1, FcγRIIa R; experiment: He/Con_2aR divided by He/Con_2b (FcγRIIa R over FcγRIIb); SPR (Biacore)
FcγRIIa R [2] = biological target: T1, FcγRIIa R; experiment: SPR (Biacore), captured antibody, FcγR analyte; binding relative to GpH7-A5/GpH7-B3/GpL16-k0 = 100
FcγRIIb = biological target: T2, FcγRIIb; experiment: as above
FcγRIIa R [3] = biological target: T3, FcγRIIa R; experiment: SPR (Biacore), antibody captured via antigen peptide, FcγRIIa R as analyte; homodimerized antibody
Description: Analysis of interaction between objective antibody and the FcγR was carried out using Biacore T100 (GE Healthcare). HBS-EP+ (GE Healthcare) was used as the running buffer, and the measurement temperature was set to 25° C. Chips produced by immobilizing the antigen peptide by the amine coupling method to a Series S Sencor Chip CM5 (GE Healthcare), or alternatively, chips produced by allowing preliminarily biotinylated antigen peptides to interact with and immobilize onto a Series S Sensor Chip SA (certified) (GE Healthcare) were used. Antibodies of interest were captured onto an antigen peptide-immobilized chip, and allowed to interact to each FcγR diluted with running buffer. To regenerate and repeatedly use the chip, the antibodies captured on the chip were washed off by reacting 10 mM glycine-HCl, pH 1.5.

Binder | IIaR/IIb (He_2aR/2b) (FcγRIIa R [1]) [ratio] | He/Con_2aR (IIaR binding) (FcγRIIa R [2]) [control=100] | He/Con_2b (IIb binding) (FcγRIIb) [control=100] | Ho/Con_2aR (FcγRIIa R [3])
GpH7-A5/GpH7-B3 variant S298_19Q/GpL16-k0 (antibody, human IgG1, kappa, He Ab; IgG1; mutation in one H chain only) heavy 1: not shown heavy 2: not shown light: DIVMTQSPLSLPVTPGEPASISCQASESLVHSNRNTYLHWYLQKPGQSPQLLIYKVSNRFSGVPDRFSGSGSGTDFTLKISRVEAEDVGVYYCSQNTHVPPTFGQGTKVEIERTVAAPSVFIFPPSDEQLKSGTASVVCLLNNFYPREAKVQWKVDNALQSGNSQESVTEQDSKDSTYSLSSTLTLSKADYEKHKVYACEVTHQGLSSPVTKSFNRGEC | 1.3 | 95 | 73.3 | 
GpH7-B3 variant T335_15Y/GpL16-k0 (antibody, human IgG1, kappa, homodimerized; mutation in both H chains; also called Ho Ab) heavy: not shown light: DIVMTQSPLSLPVTPGEPASISCQASESLVHSNRNTYLHWYLQKPGQSPQLLIYKVSNRFSGVPDRFSGSGSGTDFTLKISRVEAEDVGVYYCSQNTHVPPTFGQGTKVEIERTVAAPSVFIFPPSDEQLKSGTASVVCLLNNFYPREAKVQWKVDNALQSGNSQESVTEQDSKDSTYSLSSTLTLSKADYEKHKVYACEVTHQGLSSPVTKSFNRGEC |  |  |  | 107 % of control (GpH7-B3/GpL16-k0 = 100)
GpH7-B3 variant G236_09D/GpL16-k0 (antibody, human IgG1, kappa, homodimerized; mutation in both H chains; also called Ho Ab) heavy: not shown light: DIVMTQSPLSLPVTPGEPASISCQASESLVHSNRNTYLHWYLQKPGQSPQLLIYKVSNRFSGVPDRFSGSGSGTDFTLKISRVEAEDVGVYYCSQNTHVPPTFGQGTKVEIERTVAAPSVFIFPPSDEQLKSGTASVVCLLNNFYPREAKVQWKVDNALQSGNSQESVTEQDSKDSTYSLSSTLTLSKADYEKHKVYACEVTHQGLSSPVTKSFNRGEC |  |  |  | 107 % of control (GpH7-B3/GpL16-k0 = 100)
GpH7-A5/GpH7-B3 variant S298_20W/GpL16-k0 (antibody, human IgG1, kappa, He Ab; IgG1; mutation in one H chain only) heavy 1: not shown heavy 2: not shown light: DIVMTQSPLSLPVTPGEPASISCQASESLVHSNRNTYLHWYLQKPGQSPQLLIYKVSNRFSGVPDRFSGSGSGTDFTLKISRVEAEDVGVYYCSQNTHVPPTFGQGTKVEIERTVAAPSVFIFPPSDEQLKSGTASVVCLLNNFYPREAKVQWKVDNALQSGNSQESVTEQDSKDSTYSLSSTLTLSKADYEKHKVYACEVTHQGLSSPVTKSFNRGEC | 1.35 | 55.4 | 41.1 | 
GpH7-A5/GpH7-B3 variant Y300_12R/GpL16-k0 (antibody, human IgG1, kappa, He Ab; IgG1; mutation in one H chain only) heavy 1: not shown heavy 2: not shown light: DIVMTQSPLSLPVTPGEPASISCQASESLVHSNRNTYLHWYLQKPGQSPQLLIYKVSNRFSGVPDRFSGSGSGTDFTLKISRVEAEDVGVYYCSQNTHVPPTFGQGTKVEIERTVAAPSVFIFPPSDEQLKSGTASVVCLLNNFYPREAKVQWKVDNALQSGNSQESVTEQDSKDSTYSLSSTLTLSKADYEKHKVYACEVTHQGLSSPVTKSFNRGEC | 1.34 | 55.1 | 41.2 | 
GpH7-A5/GpH7-B3 variant Y300_18N/GpL16-k0 (antibody, human IgG1, kappa, He Ab; IgG1; mutation in one H chain only) heavy 1: not shown heavy 2: not shown light: DIVMTQSPLSLPVTPGEPASISCQASESLVHSNRNTYLHWYLQKPGQSPQLLIYKVSNRFSGVPDRFSGSGSGTDFTLKISRVEAEDVGVYYCSQNTHVPPTFGQGTKVEIERTVAAPSVFIFPPSDEQLKSGTASVVCLLNNFYPREAKVQWKVDNALQSGNSQESVTEQDSKDSTYSLSSTLTLSKADYEKHKVYACEVTHQGLSSPVTKSFNRGEC | 1.21 | 100 | 82.7 | 
GpH7-A5/GpH7-B3 variant Y300_05P/GpL16-k0 (antibody, human IgG1, kappa, He Ab; IgG1; mutation in one H chain only) heavy 1: not shown heavy 2: not shown light: DIVMTQSPLSLPVTPGEPASISCQASESLVHSNRNTYLHWYLQKPGQSPQLLIYKVSNRFSGVPDRFSGSGSGTDFTLKISRVEAEDVGVYYCSQNTHVPPTFGQGTKVEIERTVAAPSVFIFPPSDEQLKSGTASVVCLLNNFYPREAKVQWKVDNALQSGNSQESVTEQDSKDSTYSLSSTLTLSKADYEKHKVYACEVTHQGLSSPVTKSFNRGEC | 1.47 | 10.8 | 7.3 | 

Continued, values first:

IIaR/IIb (He_2aR/2b) (FcγRIIa R [1]) [ratio] | He/Con_2aR (IIaR binding) (FcγRIIa R [2]) [control=100] | He/Con_2b (IIb binding) (FcγRIIb) [control=100] | Ho/Con_2aR (FcγRIIa R [3]) | Binder
 |  |  | 123 % of control (GpH7-B3/GpL16-k0 = 100) | GpH7-B3 variant I332_10E/GpL16-k0 (antibody, human IgG1, kappa, homodimerized; mutation in both H chains; also called Ho Ab; GpH7-B3-22-10E/GpL16-k0) heavy: not shown light: DIVMTQSPLSLPVTPGEPASISCQASESLVHSNRNTYLHWYLQKPGQSPQLLIYKVSNRFSGVPDRFSGSGSGTDFTLKISRVEAEDVGVYYCSQNTHVPPTFGQGTKVEIERTVAAPSVFIFPPSDEQLKSGTASVVCLLNNFYPREAKVQWKVDNALQSGNSQESVTEQDSKDSTYSLSSTLTLSKADYEKHKVYACEVTHQGLSSPVTKSFNRGEC
 |  |  | 157 % of control (GpH7-B3/GpL16-k0 = 100) | GpH7-B3 variant H268_09D/GpL16-k0 (antibody, human IgG1, kappa, homodimerized; mutation in both H chains; also called Ho Ab) heavy: not shown light: DIVMTQSPLSLPVTPGEPASISCQASESLVHSNRNTYLHWYLQKPGQSPQLLIYKVSNRFSGVPDRFSGSGSGTDFTLKISRVEAEDVGVYYCSQNTHVPPTFGQGTKVEIERTVAAPSVFIFPPSDEQLKSGTASVVCLLNNFYPREAKVQWKVDNALQSGNSQESVTEQDSKDSTYSLSSTLTLSKADYEKHKVYACEVTHQGLSSPVTKSFNRGEC
 |  |  | 135 % of control (GpH7-B3/GpL16-k0 = 100) | GpH7-B3 variant H268_13S/GpL16-k0 (antibody, human IgG1, kappa, homodimerized; mutation in both H chains; also called Ho Ab) heavy: not shown light: DIVMTQSPLSLPVTPGEPASISCQASESLVHSNRNTYLHWYLQKPGQSPQLLIYKVSNRFSGVPDRFSGSGSGTDFTLKISRVEAEDVGVYYCSQNTHVPPTFGQGTKVEIERTVAAPSVFIFPPSDEQLKSGTASVVCLLNNFYPREAKVQWKVDNALQSGNSQESVTEQDSKDSTYSLSSTLTLSKADYEKHKVYACEVTHQGLSSPVTKSFNRGEC
 |  |  | 109 % of control (GpH7-B3/GpL16-k0 = 100) | GpH7-B3 variant I332_04F/GpL16-k0 (antibody, human IgG1, kappa, homodimerized; mutation in both H chains; also called Ho Ab) heavy: not shown light: DIVMTQSPLSLPVTPGEPASISCQASESLVHSNRNTYLHWYLQKPGQSPQLLIYKVSNRFSGVPDRFSGSGSGTDFTLKISRVEAEDVGVYYCSQNTHVPPTFGQGTKVEIERTVAAPSVFIFPPSDEQLKSGTASVVCLLNNFYPREAKVQWKVDNALQSGNSQESVTEQDSKDSTYSLSSTLTLSKADYEKHKVYACEVTHQGLSSPVTKSFNRGEC
 |  |  | 134 % of control (GpH7-B3/GpL16-k0 = 100) | GpH7-B3 variant H268_18N/GpL16-k0 (antibody, human IgG1, kappa, homodimerized; mutation in both H chains; also called Ho Ab) heavy: not shown light: DIVMTQSPLSLPVTPGEPASISCQASESLVHSNRNTYLHWYLQKPGQSPQLLIYKVSNRFSGVPDRFSGSGSGTDFTLKISRVEAEDVGVYYCSQNTHVPPTFGQGTKVEIERTVAAPSVFIFPPSDEQLKSGTASVVCLLNNFYPREAKVQWKVDNALQSGNSQESVTEQDSKDSTYSLSSTLTLSKADYEKHKVYACEVTHQGLSSPVTKSFNRGEC
 |  |  | 127 % of control (GpH7-B3/GpL16-k0 = 100) | GpH7-B3 variant I332_09D/GpL16-k0 (antibody, human IgG1, kappa, homodimerized; mutation in both H chains; also called Ho Ab) heavy: not shown light: DIVMTQSPLSLPVTPGEPASISCQASESLVHSNRNTYLHWYLQKPGQSPQLLIYKVSNRFSGVPDRFSGSGSGTDFTLKISRVEAEDVGVYYCSQNTHVPPTFGQGTKVEIERTVAAPSVFIFPPSDEQLKSGTASVVCLLNNFYPREAKVQWKVDNALQSGNSQESVTEQDSKDSTYSLSSTLTLSKADYEKHKVYACEVTHQGLSSPVTKSFNRGEC
 |  |  | 140 % of control (GpH7-B3/GpL16-k0 = 100) | GpH7-B3 variant G236_10E/GpL16-k0 (antibody, human IgG1, kappa, homodimerized; mutation in both H chains; also called Ho Ab) heavy: not shown light: DIVMTQSPLSLPVTPGEPASISCQASESLVHSNRNTYLHWYLQKPGQSPQLLIYKVSNRFSGVPDRFSGSGSGTDFTLKISRVEAEDVGVYYCSQNTHVPPTFGQGTKVEIERTVAAPSVFIFPPSDEQLKSGTASVVCLLNNFYPREAKVQWKVDNALQSGNSQESVTEQDSKDSTYSLSSTLTLSKADYEKHKVYACEVTHQGLSSPVTKSFNRGEC
 |  |  | 154 % of control (GpH7-B3/GpL16-k0 = 100) | GpH7-B3 variant H268_10E/GpL16-k0 (antibody, human IgG1, kappa, homodimerized; mutation in both H chains; also called Ho Ab) heavy: not shown light: DIVMTQSPLSLPVTPGEPASISCQASESLVHSNRNTYLHWYLQKPGQSPQLLIYKVSNRFSGVPDRFSGSGSGTDFTLKISRVEAEDVGVYYCSQNTHVPPTFGQGTKVEIERTVAAPSVFIFPPSDEQLKSGTASVVCLLNNFYPREAKVQWKVDNALQSGNSQESVTEQDSKDSTYSLSSTLTLSKADYEKHKVYACEVTHQGLSSPVTKSFNRGEC
